The source of these data is doi:10.1101/2024.08.08.606885.

The target of test [1] is SARS-CoV-2 JN.1 RBD (SARS-CoV-2) (UniProt P0DTC2). Nature of the test: BLI; […]; 10x kinetics buffer, […]; global fit, 1:1 binding model; […].
Test [2] addresses SARS-CoV-2 BA.2.86 S (Acro Biosystems, SPN-C524y) (SARS-CoV-2). Nature of the test: cryo-EM structure.

As for “TRI2-2 homotrimeric miniprotein inhibitor (designed binder)”, in test [1], the Kd was 6.19 nM, the koff was found to be 0.00175 s⁻¹ and the kon came to 282000 M⁻¹ s⁻¹.
“SARS-CoV-2 BA.2.86 S (Acro Biosystems, SPN-C524y) (domain or fragment)” yielded a stoichiometry N in test [2] of 3.
